# Measured values published in patent US11278600B2, “Human alpha-galactosidase variants” (Codexis, Inc., priority 2014, dated 2022).
# Assays:
# Format in all cases: biochemical
# [1] = HTP-analysis of yeast culture supernatants, no challenge (MUGal hydrolysis); conditions: activity of the variant/activity of Rd7BB (SEQ ID NO: 44)
# In short: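 Activity read as 4-methylumbelliferyl α-D-galactopyranoside hydrolysis: fluorescence (355/448 nm) after sodium carbonate stop, following 30-180 min at 37° C with 2 mM MUGal stock at pH 4.6–4.8. Enzyme source is unchallenged culture supernatant of INVSc1 yeast expressing GLA variants, grown 66-84 h at 30° C.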
# [2] = HTP-analysis of supernatants pretreated with base (MUGal hydrolysis); conditions: activity of the variant/activity of Rd7BB (SEQ ID NO: 44); challenge at pH 7.5
# In short: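 Supernatants from INVSc1 yeast expressing GLA variants (SD-Ura, 66-84 h, 30° C) were mixed with McIlvaine buffer pH 7.0-8.2 or 200 mM sodium bicarbonate pH 9.1-9.7 and held 1-18 h at 37° C. Residual activity was then measured on MUGal at pH 4.8/4.3, 37° C, 30-180 min, by fluorescence (Ex 355/Em 448 nm).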
# [3] = HTP-analysis of supernatants pretreated with acid (MUGal hydrolysis); conditions: activity of the variant/activity of Rd7BB (SEQ ID NO: 44); challenge at pH 3.5
# In short: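 MUGal hydrolysis was tracked by fluorescence (Ex 355 nm, Em 448 nm) after a 30-180 min reaction at 37° C. in pH 4.8 McIlvaine/citrate buffer, stopped with 1 M sodium carbonate. Beforehand, yeast (INVSc1) culture supernatants carrying GLA variants were held 1-3 h at 37° C. in acidic McIlvaine buffer, pH 3.3-4.3.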
Molecule,Relative Activity of GLA Variants After No Challenge (NC) [1],Relative Activity of GLA Variants After Challenge at pH 7.5 [2],Relative Activity of GLA Variants After Challenge at pH 3.5 [3]
"688 (protein, Synthetic Polypeptide sequence of Variant No. 688 of mature Human GLA) LDNGLARTPTMGWLHWERFMCNLDCQEEPDSCISEKLFMEMAERMVTEGWKDAGYEYLCIDDCWMAPQRDSEGRLQADPQRFPHGIRQLANHVHSKGLKLGIYADVGNKTCAGFPGSFGYYDIDAQTFADWGVDLLKFDGCYCDSLENLADGYKHMSLALNRTGRPIVYSCEWPLYMWPFQKPNYTEIRQYCNHWRNFADIDDSWASIKSILDWTSRNQERIVDVAGQGGWNDPDMLVIGNFGLSWDQQVTQMALWAIMAAPLFMSNDLRAISPQAKALLQDKDVIAINQDPLGKQGYQLRKGDNFEVWERPLSGDAWAVAIINRQEIGGPRSYTIPVASLGKGVACNPACFITQLLPVKRQLGFYNWTSRLKSHINPTGTVLLQLENTMQTSLKDLL",+ (>0.5 to 1.5 relative activity over Rd7BB (SEQ ID NO: 44)),− (<0.5 relative activity to Rd7BB (SEQ ID NO: 44)),+ (>0.5 to 1.5 relative activity over Rd7BB (SEQ ID NO: 44))
"693 (protein, Synthetic Polypeptide sequence of Variant No. 693 of mature Human GLA) LDNGLARTPTMGWLHWERFMCNLDCQEEPDSCISEKLFMEMAERMVTEGWKDAGYEYLCIDDCWMAPQRDSEGRLQADPQRFPHGIRQLANHVHSKGLKLGIYADVGNKTCAGFPGSFGYYDIDAQTFADWGVDLLKFDGCYCDSLENLADGYKHMSLALNRTGRPIVYSCEWPLYMWPFQKPNYTEIRQYCNHWRNFADIDDSWASIKSILDWTSRNQERIVDVAGPGGWNDPDMLVIGNFGLSWDQQVTQMALWAIMAAPLFMSNDLRAISPQAKALLQDKDVIAINQDPLGKQGYQLRKGDNFEVWERPLSGDAWAVAIINRQEIGGPRSYTIPVASLGKGVACNPACFITQLLPVKRQLGFYNATSRLKSHINPTGTVLLQLENTMQTSLKDLL",+ (>0.5 to 1.5 relative activity over Rd7BB (SEQ ID NO: 44)),+ (>0.5 to 1.5 relative activity over Rd7BB (SEQ ID NO: 44)),+ (>0.5 to 1.5 relative activity over Rd7BB (SEQ ID NO: 44))
"691 (protein, Synthetic Polypeptide sequence of Variant No. 691 of mature Human GLA) LDNGLARTPPMGWLHWERFMCNLDCQEEPDSCISEKLFMEMAERMVTEGWKDAGYEYLCIDDCWMAPQRDSEGRLQADPQRFPHGIRQLANHVHSKGLKLGIYADVGNKTCAGFPGSFGYYDIDAQTFADWGVDLLKFDGCYCDSLENLADGYKHMSLALNRTGRPIVYSCEWPLYMWPFQKPNYTEIRQYCNHWRNFADIDDSWASIKSILDWTSRNQERIVDVAGPGGWNDPDMLVIGNFGLSWDQQVTQMALWAIMAAPLFMSNDLRAISPQAKALLQDKDVIAINQDPLGKQGYQLRKGDNFEVWERPLSGDAWAVAIINRQEIGGPRSYTIPVASLGKGVACNPACFITQLLPVKRQLGFYNWTSRLKSHINPTGTVLLQLENTMQTSLKDLL",+ (>0.5 to 1.5 relative activity over Rd7BB (SEQ ID NO: 44)),+ (>0.5 to 1.5 relative activity over Rd7BB (SEQ ID NO: 44)),+ (>0.5 to 1.5 relative activity over Rd7BB (SEQ ID NO: 44))
"692 (protein, Synthetic Polypeptide sequence of Variant No. 692 of mature Human GLA) LDNGLARTPTMGWLHWERFMCNLDCQEEPDSCISEKLFMEMAERMVTEGWKDAGYEYLCIDDCWMAPQRDSEGRLQADPQRFPHGIRQLANHVHSKGLKLGIYADVGNKTCAGFPGSFGYYDIDAQTFADWGVDLLKFDGCYCDSLENLADGYKHMSLALNRTGRPIVYSCEWPLYMWPFQKPNYTEIRQYCNHWRNFADIDDSWASIKSILDWTSRNQERIVDVAGPGGWNDPDMLVIGNFGLSWDQQVTQMALLAIMAAPLFMSNDLRAISPQAKALLQDKDVIAINQDPLGKQGYQLRKGDNFEVWERPLSGDAWAVAIINRQEIGGPRSYTIPVASLGKGVACNPACFITQLLPVKRQLGFYNWTSRLKSHINPTGTVLLQLENTMQTSLKDLL",− (<0.5 relative activity to Rd7BB (SEQ ID NO: 44)),− (<0.5 relative activity to Rd7BB (SEQ ID NO: 44)),− (<0.5 relative activity to Rd7BB (SEQ ID NO: 44))
"690 (protein, Synthetic Polypeptide sequence of Variant No. 690 of mature Human GLA) LDNGLARTPPMGWLHWERFMCNLDCQEEPDSCISEKLFMEMAERMVTEGWKDAGYEYLCIDDCWMAPQRDSEGRLQADPQRFPHGIRQLANHVHSKGLKLGIYADVGNKTCAGFPGSFGYYDIDAQTFADWGVDLLKFDGCYCDSLENLADGYKHVSLALNRTGRPIVYSCEWPLYMWPFQKPNYTEIRQYCNHWRNFADIDDSWASIKSILDWTSRNQERIVDVAGPGGWNDPDMLVIGNFGLSWDQQVTQMALWAIMAAPLFMSNDLRAISPQAKALLQDKDVIAINQDPLGKQGYQLRKGDNFEVWERPLSGDAWAVAIINRQEIGGPRSYTIPVASLGKGVACNPACFITQLLPVKRQLGFYNWTSRLKSHINPTGTVLLQLENTMQTSLKDLL",+ (>0.5 to 1.5 relative activity over Rd7BB (SEQ ID NO: 44)),− (<0.5 relative activity to Rd7BB (SEQ ID NO: 44)),− (<0.5 relative activity to Rd7BB (SEQ ID NO: 44))
"689 (protein, Synthetic Polypeptide sequence of Variant No. 689 of mature Human GLA) LDNGLARTPTMGWLHWERFMCNLDCQEEPDSCISEKLFMEMAERMVTEGWKDAGYEYLCIDDCWMAPQRDSEGRLQADPQRFPHGIRQLANHVHSKGLKLGIYADVGNKTCAGFPGSFGYYDIDAQTFADWGVDLLKFDGCYCDSLENLADGYKHMSLALNRTGRPIVYSCEWPLYMWPFQKPNYTEIRQYCNHWRNFADIDDSWASIKSILDWTSRNQERIVDVAGPGGWNDPDMLVIGNFGLSWDQQVTQMALWAIMAAPLFMSNDLRAISPQAKALLQDKDVIAINQDPLGKQGYQLRKGDLFEVWERPLSGDAWAVAIINRQEIGGPRSYTIPVASLGKGVACNPACFITQLLPVKRQLGFYNWTSRLKSHINPTGTVLLQLENTMQTSLKDLL",+ (>0.5 to 1.5 relative activity over Rd7BB (SEQ ID NO: 44)),+ (>0.5 to 1.5 relative activity over Rd7BB (SEQ ID NO: 44)),+ (>0.5 to 1.5 relative activity over Rd7BB (SEQ ID NO: 44))
